B1: M14-C03 Fab (Fab, V domains shown)
VH: EVQLLESGGGLVQPGGSLRLSCAASGFTFSKYMMSWVRQAPGKGLEWVSYISPSGGLTWYADSVKGRFTISRDNSKNTLYLQMNSLRAEDTAVYYCARDGARGYGMDVWGQGTTVTVSS
VL: DIQMTQSPATLSLSPGERATLSCRASQSVSSYLAWYQQKPGQAPRLLIYDASNRATGIPARFSGSGSGTDFTLTISSLEPEDFAVYYCQQRSNWPPEVTFGPGTKVDIK
B2: M13-C06 Fab (Fab, V domains shown)
VH: EVQLLESGGGLVQPGGSLRLSCAASGFTFSIYRMQWVRQAPGKGLEWVSGISPSGGTTWYADSVKGRFTISRDNSKNTLYLQMNSLRAEDTAVYYCARWSGGSGYAFDIWGQGTMVTVSS
VL: DIQMTQSPLSLSASVGDRVTITCQASRDIRNYLNWYQQKPGKAPKLLIYDASSLQTGVPSRFGGSGSGTDFSFTIGSLQPEDIATYYCQQFDSLPHTFGQGTKLEIK

Target: All other mutant IGF-1R constructs
Test: SPR, Fab over captured mutant hIGF-1R-Fc; all of SD001-SD019 other than SD015

Binder	Kd
B1	5 nM
B2	1 nM

Source: patent publication US20090130105A1
